US8349318B2, “Use of specifically engineered enzymes to enhance the efficacy of prodrugs” (The Board of Trustees of the University of Illinois, priority 2008, dated 2013)

Legend:
[1] = tested on: T1, Cc1cn([C@@H]2C[C@@H](O)[C@H](CO)O2)c(=O)[nH]c1=O; experiment: Kinetic assay of nucleoside phosphorylation by R104Q-D133A dCK; type: biochemical, human; settings: other: nucleoside 200 uM, 1 mM ATP
T1 construct: made in house

[2] = tested on: Nc1ccn([C@@H]2O[C@H](CO)[C@@H](O)C2(F)F)c(=O)n1; experiment: purified protein, by the assay type; settings: other: Table 9; pH 7.5; 37.0 °C
[3] = tested on: Nc1nc2c(ncn2[C@H]2C[C@H](O)[C@@H](CO)O2)c(=O)[nH]1; experiment: purified protein, by the assay type; settings: other: Table 9; pH 7.5; 37.0 °C
[4] = tested on: Cc1cn([C@@H]2C[C@@H](O)[C@H](CO)O2)c(=O)[nH]c1=O; experiment: purified protein, by the assay type; settings: other: Table 9; pH 7.5; 37.0 °C

Chain of dCK R104L/D133A (Homo sapiens; D133A/R104L) (chain, as listed by the source R104L D133A D133A R104L): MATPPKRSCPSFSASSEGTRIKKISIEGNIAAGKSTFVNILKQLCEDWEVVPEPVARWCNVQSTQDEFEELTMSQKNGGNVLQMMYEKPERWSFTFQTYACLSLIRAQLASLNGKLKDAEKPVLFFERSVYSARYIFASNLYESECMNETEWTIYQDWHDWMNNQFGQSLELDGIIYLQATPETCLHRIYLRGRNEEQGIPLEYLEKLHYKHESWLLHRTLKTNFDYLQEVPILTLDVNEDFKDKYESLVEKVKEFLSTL
Chain of Wild Type dCK (Homo sapiens) (chain, as listed by the source): as the sequence (chain, as listed by the source R104L D133A D133A R104L) above, with L104R, A133D counted along it
Chain of R104Q-D133A dCK (Homo sapiens; D133A/R104Q) (chain, as listed by the source R104Q D133A D133A R104Q): as the sequence (chain, as listed by the source R104L D133A D133A R104L) above, with L104Q counted along it

Substance	kcat [1]	Km [2]	kcat [2]	Km [3]	kcat [3]	Km [4]	kcat [4]
R104Q-D133A dCK (Homo sapiens; D133A/R104Q)	0.24 s⁻¹						
Wild Type dCK (Homo sapiens)		16.1 ± 3.5 µM	0.39 ± 0.03 s⁻¹	231.0 ± 20.0 µM	2.60 ± 0.10 s⁻¹		
dCK R104L/D133A (Homo sapiens; D133A/R104L)		33.8 ± 5.3 µM	2.01 ± 0.08 s⁻¹	2266 ± 823 µM	3.66 ± 0.01 s⁻¹	17.8 ± 1.6 µM	1.33 ± 0.01 s⁻¹
